T1: human LAG3 (expressed on cells) (human)
T1 construct: also called Hu LAG3; human LAG3 transfectants
T1 chain: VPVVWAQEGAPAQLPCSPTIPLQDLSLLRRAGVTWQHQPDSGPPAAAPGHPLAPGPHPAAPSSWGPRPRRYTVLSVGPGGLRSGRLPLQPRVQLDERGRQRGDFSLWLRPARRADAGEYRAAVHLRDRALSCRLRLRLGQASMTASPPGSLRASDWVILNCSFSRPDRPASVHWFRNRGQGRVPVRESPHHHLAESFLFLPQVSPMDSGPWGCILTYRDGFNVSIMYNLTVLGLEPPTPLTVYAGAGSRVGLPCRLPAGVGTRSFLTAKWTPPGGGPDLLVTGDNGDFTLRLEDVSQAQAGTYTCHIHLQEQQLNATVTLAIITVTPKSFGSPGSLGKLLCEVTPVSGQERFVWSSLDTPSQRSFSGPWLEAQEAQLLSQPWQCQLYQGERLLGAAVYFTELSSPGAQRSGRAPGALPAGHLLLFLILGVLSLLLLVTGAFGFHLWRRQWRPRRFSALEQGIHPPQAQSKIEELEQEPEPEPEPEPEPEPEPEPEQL


Legend:
[1] = biological target: T1, human LAG3 (expressed on cells); experiment: cell-based KinExA; human LAG3 on BaF/3 cells; ratio to ADI-12126
[2] = biological target: T1, human LAG3 (expressed on cells); experiment: cell-based KinExA; BaF/3 cells stably transfected with human LAG3; n = 2
Protocol: (§1) The affinities of the anti-LAG3 antibodies for human and cynomolgous monkey LAG3 were determined using a cell based Kinetic Exclusion Assay (KinExA). Cell based KinExA can be used to measure the affinity of a molecule for a binding partner on a cell surface (Rathanaswami et al. Analylitical Biochemistry 373(1): 52-60 (2008); Xie et al. J. Immunol. Methods 304 (1-2): 1-14 (2005)). In this case, BaF/3 cells were stably transfected with human or cynomolgus monkey LAG3 proteins. Transfected cells or the parental BaF/3 control cell line were grown to a density of 1.7×10⁶ to 3.2×10⁶ cells per ml at 37° C., 120 RPM, 5% CO₂, in 1×RPMI 1640 media with 10% FBS, 10 ng/ml IL-3, 5 μg/ml puromycin. Cells were concentrated, mixed with 15 pM or 150 pM antibody in cell culture media and incubated 24 to 48 hours at room temperature while rotating at 20 to 30 RPM. Cells were present at a top concentration of 2×10⁷ cells per ml (parental BaF/3 or cynomolgus LAG3 transfectants) or 1×10⁷ cells per ml (human LAG3 transfectants) and diluted in a 2-fold, 18 member series. The cells were pelleted and free antibody in the supernatant was measured using a KinExA 3200 instrument (Sapidyne, Idaho, USA). […] Antibody on the beads was labeled with 1.5 μg/ml Alexa Fluor® 647 conjugated goat anti-human (Fab′)₂ (Jackson ImmunoResearch Laboratories), washed and the fluorescent signal was read all using the KinExA™ 3200. […]

[3] = biological target: T1, human LAG3 (expressed on cells); experiment: cell-based KinExA; BaF/3 cells stably transfected with human LAG3; average of n = 1-3
Protocol: as §1

[4] = biological target: T1, human LAG3 (expressed on cells); experiment: cell-based KinExA; BaF/3 cells stably transfected with human LAG3; n = 1
Protocol: as §1

[5] = biological target: T1, human LAG3 (expressed on cells); experiment: cell-based KinExA; BaF/3 cells stably transfected with human LAG3; n = 3
Protocol: as §1

[6] = biological target: T2, human LAG3-His tagged recombinant protein (human); experiment: SPR, Biacore T200; antibody captured, human LAG3-His as analyte, 1:1 Langmuir fit; average
T2 construct: also called human LAG3-His protein; recombinant human LAG3
Protocol: (§2) Approximately 4000 RU of […], Fragment Specific (Jackson ImmunoResearch Catalog #115-006-071, Lot 81313) was immobilized via amine coupling chemistry onto a Series S CM4 sensor chip, catalog number BR-1005-34. Human anti-human LAG3 clones were injected over the immobilized anti-human surfaces at 1 ug/mL for a capture level of 40 RU. HBS-EP+ buffer (BR-1006-69) was used as the running buffer with a flow rate of 30 μL/min.
(§3) Varying concentrations of human LAG3-His protein ranging from 0.15 nM to 18.8 nM, at a flow rate of 40 μL/min were injected over the antibody surfaces. Following each injection cycle, the Series S CM4 chip surface was regenerated using one six second injection of 10 mM Glycine pH 1.5 solution followed by an injection of 12.5 mM NaOH solution at a flow rate of 60 μL/min.
(§4) Background subtraction binding sensorgrams were used for analyzing the rate constant of association (kₐ) and dissociation (kd), and the equilibrium dissociation constant KD. The resulting data sets were fitted with a 1:1 Langmuir Binding Model using the Biacore T200 evaluation software (version 2.0).
Target sequence in this assay (P18627 23-450): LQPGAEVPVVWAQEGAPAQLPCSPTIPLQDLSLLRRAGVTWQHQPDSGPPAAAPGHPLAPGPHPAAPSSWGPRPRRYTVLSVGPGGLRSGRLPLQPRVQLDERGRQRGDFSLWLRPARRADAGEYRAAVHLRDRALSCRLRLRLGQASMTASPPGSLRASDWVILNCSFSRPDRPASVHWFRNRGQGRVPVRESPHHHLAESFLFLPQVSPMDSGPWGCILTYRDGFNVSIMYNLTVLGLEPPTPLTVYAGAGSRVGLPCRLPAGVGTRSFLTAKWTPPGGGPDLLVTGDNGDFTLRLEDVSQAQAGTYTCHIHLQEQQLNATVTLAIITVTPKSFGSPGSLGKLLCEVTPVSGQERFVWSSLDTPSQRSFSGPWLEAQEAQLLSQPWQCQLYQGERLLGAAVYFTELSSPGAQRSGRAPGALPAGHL

[7] = biological target: T2, human LAG3-His tagged recombinant …; experiment: SPR, Biacore T200; antibody captured, human LAG3-His as analyte, 1:1 Langmuir fit; n = 1
Protocol: as §2, §3, §4
Target sequence in this assay (P18627 23-450): as above

[8] = biological target: T2, human LAG3-His tagged recombinant …; experiment: SPR, Biacore T200; antibody captured, human LAG3-His as analyte, 1:1 Langmuir fit; n = 2
Protocol: as §2, §3, §4
Target sequence in this assay (P18627 23-450): as above

[9] = biological target: T2, human LAG3-His tagged recombinant …; experiment: SPR, Biacore T200; fold against the parental antibody, as printed in this row
Protocol: as §2, §3, §4

KD/KD ref (ref = ADI-12126) [1]	Kd [2]	Kd [3]	Kd [4]	Kd [5]	Kd [6]	Kd [7]	Kd [8]	Fold weaker than ADI-12126 (M57, M115) IgG4 S228P/Kappa [9]	Binder
0.8	25 pM	18 pM	15 pM	13 pM	–	–	–	–	ADI-12126 M57G/M115L (antibody, V domains shown) VH: not shown VL: EIVLTQSPATLSLSPGERATLSCRASQSVSSYLAWYQQKPGQAPRLLIYDASNRATGIPARFSGSGSGTDFTLTISSLEPEDFAVYYCQQASIWPLTFGGGTKVEIKR
–	–	–	–	–	33 pM	32 pM	34 pM	–	ADI-12126 (Q1E, M57Y, M115L) IgG4 S228P/Kappa (antibody, V domains shown) VH: EVQLVQSGAEVKKPGASVKVSCKASGYTFTGYYMHWVRQAPGQGLEWMGWINANSGYTNYAQKFQGRVTMTRDTSISTAYMELSRLRSDDTAVYYCARDIYDSSDQLNVWGQGTLVTVSS VL: EIVLTQSPATLSLSPGERATLSCRASQSVSSYLAWYQQKPGQAPRLLIYDASNRATGIPARFSGSGSGTDFTLTISSLEPEDFAVYYCQQASIWPLTFGGGTKVEIKR
0.9	30 pM	21 pM	17 pM	17 pM	–	–	–	–	ADI-12126 M57A/M115L (antibody, V domains shown) VH: EVQLVQSGAEVKKPGASVKVSCKASGYTFTGYYMHWVRQAPGQGLEWMGWINANSGATNYAQKFQGRVTMTRDTSISTAYMELSRLRSDDTAVYYCARDIYDSSDQLNVWGQGTLVTVSS VL: EIVLTQSPATLSLSPGERATLSCRASQSVSSYLAWYQQKPGQAPRLLIYDASNRATGIPARFSGSGSGTDFTLTISSLEPEDFAVYYCQQASIWPLTFGGGTKVEIKR

Further lines, the binder ahead of its results:

Binder	KD/KD ref (ref = ADI-12126) [1]	Kd [2]	Kd [3]	Kd [4]	Kd [5]	Kd [6]	Kd [7]	Kd [8]	Fold weaker than ADI-12126 (M57, M115) IgG4 S228P/Kappa [9]
ADI-12126 (Q1E, M57S, M115L) IgG4 S228P/Kappa (antibody, V domains shown) VH: EVQLVQSGAEVKKPGASVKVSCKASGYTFTGYYMHWVRQAPGQGLEWMGWINANSGSTNYAQKFQGRVTMTRDTSISTAYMELSRLRSDDTAVYYCARDIYDSSDQLNVWGQGTLVTVSS VL: EIVLTQSPATLSLSPGERATLSCRASQSVSSYLAWYQQKPGQAPRLLIYDASNRATGIPARFSGSGSGTDFTLTISSLEPEDFAVYYCQQASIWPLTFGGGTKVEIKR	–	–	–	–	–	127 pM	134 pM	119 pM	–
ADI-12126 (Q1E, M57T, M115L) IgG4 S228P/Kappa (antibody, V domains shown) VH: EVQLVQSGAEVKKPGASVKVSCKASGYTFTGYYMHWVRQAPGQGLEWMGWINANSGTTNYAQKFQGRVTMTRDTSISTAYMELSRLRSDDTAVYYCARDIYDSSDQLNVWGQGTLVTVSS VL: EIVLTQSPATLSLSPGERATLSCRASQSVSSYLAWYQQKPGQAPRLLIYDASNRATGIPARFSGSGSGTDFTLTISSLEPEDFAVYYCQQASIWPLTFGGGTKVEIKR	–	–	–	–	–	66 pM	66 pM	65 pM	–
ADI-12126 (Q1E, M57G, M115L) IgG4 S228P/Kappa (antibody, V domains shown, The parental residues are Q1, M57, M115) VH: not shown VL: EIVLTQSPATLSLSPGERATLSCRASQSVSSYLAWYQQKPGQAPRLLIYDASNRATGIPARFSGSGSGTDFTLTISSLEPEDFAVYYCQQASIWPLTFGGGTKVEIKR	–	–	–	–	–	10 pM	11 pM	10 pM	4.6 fold
ADI-12126 (Q1E, M57V, M115L) IgG4 S228P/Kappa (antibody, V domains shown) VH: EVQLVQSGAEVKKPGASVKVSCKASGYTFTGYYMHWVRQAPGQGLEWMGWINANSGVTNYAQKFQGRVTMTRDTSISTAYMELSRLRSDDTAVYYCARDIYDSSDQLNVWGQGTLVTVSS VL: EIVLTQSPATLSLSPGERATLSCRASQSVSSYLAWYQQKPGQAPRLLIYDASNRATGIPARFSGSGSGTDFTLTISSLEPEDFAVYYCQQASIWPLTFGGGTKVEIKR	–	–	–	–	–	266 pM	282 pM	250 pM	–
ADI-12126 (Q1E, M57A, M115L) IgG4 S228P/Kappa (antibody, V domains shown) VH: EVQLVQSGAEVKKPGASVKVSCKASGYTFTGYYMHWVRQAPGQGLEWMGWINANSGATNYAQKFQGRVTMTRDTSISTAYMELSRLRSDDTAVYYCARDIYDSSDQLNVWGQGTLVTVSS VL: EIVLTQSPATLSLSPGERATLSCRASQSVSSYLAWYQQKPGQAPRLLIYDASNRATGIPARFSGSGSGTDFTLTISSLEPEDFAVYYCQQASIWPLTFGGGTKVEIKR	–	–	–	–	–	13 pM	13 pM	13 pM	–
